Patent publication US20160067305A1 (UNIVERSITY OF HONG KONG, published 2016)

Biological target: T1, FLAG-tagged SIRT1 (ectopically expressed in HEK293 cells) (UniProt Q96EB6 1-747, limits assumed)
T1 construct: Immunoprecipitated from lysate of transfected HEK293 cells; also called FLAG-SIRT1; not shown: FLAG tag
T1 sequence (looked up): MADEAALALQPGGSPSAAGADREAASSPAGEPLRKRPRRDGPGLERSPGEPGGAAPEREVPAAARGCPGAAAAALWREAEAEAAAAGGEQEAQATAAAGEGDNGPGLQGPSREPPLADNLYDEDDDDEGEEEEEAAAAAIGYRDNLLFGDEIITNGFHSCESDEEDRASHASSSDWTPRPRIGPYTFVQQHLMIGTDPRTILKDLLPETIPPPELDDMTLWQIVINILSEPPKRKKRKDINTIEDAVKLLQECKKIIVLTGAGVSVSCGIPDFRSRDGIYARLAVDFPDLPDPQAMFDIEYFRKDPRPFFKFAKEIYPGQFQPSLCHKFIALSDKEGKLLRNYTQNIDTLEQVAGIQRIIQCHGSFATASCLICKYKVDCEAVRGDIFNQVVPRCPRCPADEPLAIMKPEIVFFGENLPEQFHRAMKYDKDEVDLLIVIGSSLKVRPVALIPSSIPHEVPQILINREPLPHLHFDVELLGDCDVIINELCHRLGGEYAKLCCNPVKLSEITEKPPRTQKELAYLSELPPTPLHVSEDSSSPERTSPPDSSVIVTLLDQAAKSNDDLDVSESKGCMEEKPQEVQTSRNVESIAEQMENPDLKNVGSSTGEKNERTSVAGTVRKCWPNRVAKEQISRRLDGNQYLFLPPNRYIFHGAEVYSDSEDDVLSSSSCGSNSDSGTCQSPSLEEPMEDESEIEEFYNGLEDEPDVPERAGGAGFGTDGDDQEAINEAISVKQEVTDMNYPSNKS
Experiment: co-immunoprecipitation in transfected HEK293 cells, Western blot (FIG. 1F)
Text: This was further confirmed by co-immunoprecipitation in HEK293 cells expressing FLAG-SIRT1 together with either lamin A or lamin C.

- binding result: no binding
B1: lamin C (ectopically expressed in HEK293 cells) (other, UniProt P02545-2 1-572, looked up)
chain: METPSQRRATRSGAQASSTPLSPTRITRLQEKEDLQELNDRLAVYIDRVRSLETENAGLRLRITESEEVVSREVSGIKAAYEAELGDARKTLDSVAKERARLQLELSKVREEFKELKARNTKKEGDLIAAQARLKDLEALLNSKEAALSTALSEKRTLEGELHDLRGQVAKLEAALGEAKKQLQDEMLRRVDAENRLQTMKEELDFQKNIYSEELRETKRRHETRLVEIDNGKQREFESRLADALQELRAQHEDQVEQYKKELEKTYSAKLDNARQSAERNSNLVGAAHEELQQSRIRIDSLSAQLSQLQKQLAAKEAKLRDLEDSLARERDTSRRLLAEKEREMAEMRARMQQQLDEYQELLDIKLALDMEIHAYRKLLEGEEERLRLSPSPTSQRSRGRASSHSSQTQGGGSVTKKRKLESTESRSSFSQHARTSGRVAVEEVDEEGKFVRLRNKSNEDQSMGNWQIKRQNGDDPLLTYRFPPKFTLKAGQVVTIWAAGAGATHSPPTDLVWKAQNTWGCGNSLRTALINSTGEEVAMRKLVRSVTVVEDDEDEDGDDLLHHHHVSGSRR
